Laboratory results as given in paper PMC9138545 (2022).
Square brackets hold non-standard residues; d marks the D form. Ends that are not written are not given here. pY = N[C@@H](Cc1ccc(OP(=O)(O)O)cc1)C(=O)O

Tests used:
[1] = molecular target: C-terminal SH2 domain of PI3K regulatory subunit 1 (UniProt P27986 614-724); experiment: FP
[2] = molecular target: N-terminal SH2 domain of PI3K regulatory subunit 1 (UniProt P27986 321-433); experiment: FP
Chain of N-terminal SH2 domain of PI3K regulatory subunit 1 (P27986 321-433): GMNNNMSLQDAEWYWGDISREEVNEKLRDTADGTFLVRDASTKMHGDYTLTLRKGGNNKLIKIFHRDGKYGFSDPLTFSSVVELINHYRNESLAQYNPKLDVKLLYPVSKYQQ

Chain of C-terminal SH2 domain of PI3K regulatory subunit 1 (P27986 614-724): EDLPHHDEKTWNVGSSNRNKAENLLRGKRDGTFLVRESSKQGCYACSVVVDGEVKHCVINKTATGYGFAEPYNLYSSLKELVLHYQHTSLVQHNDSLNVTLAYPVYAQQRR

| Kd [1] [nM] | Kd [2] [nM] | Binder |
| --- | --- | --- |
| 18.6 | 408 | GRKGSGDYMPMSPKSK (not fully specified; phosphotyrosine at position 8 of the peptide (tyrosine residue 632 of human IRS1); lys-carboxyfluorescein (K-FITC) at the C-terminal end) [fluorescently labelled phospho-para-tyrosine IRS-1 peptide GRKGSGD(pY)MPMSPKS(K-FITC)] |
| 2.1 | 137 | GRKGSGD[pY]MPMSPKV-NH2 [phospho-para-Tyr IRS-1 peptide GRKGSGD(pY)MPMSPKV] |
